# Measurements taken from the supplement of paper PMC10567573.
# B1: NP_002788.1 (parent)
# chain: DGWIRVSSDNVADLHEKYSGSTP
# B2: USP39 (parent)
# chain: FVEKNPTIVNFPITNVDLREYLSE
# Variants of: B1
# Test: protein stability index of a GFP-peptide fusion (GPS, HEK-293T) (PSI 1-6); higher = more stable
# Details: c terminus: native
row,Variant,protein stability index
1,S19K,1.95
2,S19T,2.47
3,S19Q,2.41
4,S19W,2.68
5,S19P,2.34
6,S19F,2.82
7,S19C,2.9
8,S19H,2.56
9,S19R,2.34
10,S19D,3.5
11,S19N,3.07
12,S19G,3.02
13,S19Y,2.47
14,S19M,2.28
15,S19E,2.87
16,S19V,2.94
17,S19I,2.49
18,S19L,2
19,S19A,2.26
20,Y18V,3.22
21,Y18W,2.81
22,G20W,2.9
23,G20A,3.8
24,G20T,4.17
25,G20C,2.82

row,Variant,protein stability index
1,G20K,3.93
2,G20R,4.17
3,G20L,3.72
4,G20Y,3.29
5,G20H,3.79
6,G20P,3.99
7,G20S,3.44
8,G20F,3.63
9,G20V,3.82
10,G20E,4.64
11,G20I,3.86
12,G20Q,3.43
13,G20D,4.65
14,G20N,3.92
15,G20M,3.63
16,S21N,1.94
17,S21T,2.19
18,S21D,4.54
19,S21A,2.21
20,S21K,3.06
21,S21P,3.5
22,S21Q,3.01
23,S21M,1.87
24,S21E,4.56
25,S21Y,2.26

row,Variant,protein stability index
1,S21H,2.49
2,S21F,2.16
3,S21C,1.98
4,S21W,3.02
5,S21L,2.06
6,S21V,1.83
7,S21I,1.95
8,S21R,2.16
9,S21G,3.59
10,T22G,2.58
11,T22K,4.96
12,T22H,3.06
13,T22D,2.98
14,T22R,3.98
15,T22Q,2.78
16,T22M,2
17,T22Y,2.63
18,T22N,4.05
19,T22C,2.36
20,T22W,2.81
21,T22S,3.1
22,T22I,2.31
23,T22E,2.64
24,T22A,3.29
25,T22L,2.28

row,Variant,protein stability index
1,T22F,2.12
2,T22V,2.46
3,T22P,4.85
4,P23T,4.51
5,P23K,5.05
6,P23G,4.43
7,P23E,5.11
8,P23Q,4.78
9,P23Y,4.27
10,P23I,3.13
11,P23L,3.93
12,P23F,4.29
13,P23A,4.55
14,P23N,4.71
15,P23D,5.08
16,P23R,3.78
17,P23W,3.31
18,P23V,4.02
19,P23C,4.56
20,P23H,4.63
21,P23S,5
22,P23M,3.41

# Variants of: B2
# Test: as above
# Details: c terminus: a fixed tail appended
row,Variant,protein stability index
1,T14C,1.72
2,T14D,2.65
3,T14G,1.82
4,T14H,2.09
5,T14A,1.74
6,T14E,1.43
7,T14I,3.46
8,T14F,1.98
9,N10H,1.75
10,N10D,2.14
11,N10K,2.48
12,N10S,1.76
13,N10E,1.99
14,N10P,2.42
15,N10W,2.08
16,N10A,2.02
17,N10G,2.93
18,N10V,2.29
19,N10R,1.8
20,N10I,3.79
21,N10F,1.57
22,N10T,1.77
23,N10Q,2.3
24,N10L,3.29

row,Variant,protein stability index
1,T7S,1.5
2,T7L,2.02
3,T7F,1.8
4,T7R,1.98
5,T7Q,1.81
6,T7A,1.8
7,T7N,2.39
8,T7E,2
9,T7H,1.69
10,T7D,2.15
11,T7Y,3.42
12,T7K,1.74
13,T7P,1.55
14,P12F,3.66
15,P12S,1.34
16,P12V,2.28
17,P12W,2.96
18,P12G,2.21
19,P12Q,1.74
20,P12E,1.66
21,P12H,1.47
22,P12A,2.06
23,P12C,1.48
24,P12M,3.23

row,Variant,protein stability index
1,P12T,2.28
2,P12K,1.56
3,P12N,2.3
4,P12R,2.74
5,P12I,2.38
6,I8M,1.25
7,I8E,2.67
8,I8S,2.89
9,I8A,1.82
10,I8T,3.34
11,I8L,2.81
12,I8Q,2.54
13,I8Y,1.55
14,I8H,2.12
15,I8V,1.89
16,I8W,2.96
17,I8D,2.77
18,I8K,2.04
19,I8P,2.76
20,I8N,2.1
21,I8R,2.56
22,I8G,1.91
23,I8F,2.25
24,I8C,2.02

row,Variant,protein stability index
1,K4T,2.29
2,K4M,1.54
3,K4A,1.74
4,K4E,2.47
5,K4S,2.52
6,K4L,2.45
7,K4H,2.03
8,K4F,1.14
9,K4N,2.05
10,K4Y,2.32
11,K4W,1.24
12,K4D,2.85
13,K4P,1.61
14,K4C,1.42
15,K4Q,2.61
16,K4G,2.11
17,K4R,1.9
18,K4V,1.81
19,K4I,1.07
20,P6E,2.21
21,P6M,2.47
22,P6Q,1.98
23,P6C,2.45
24,P6T,2.21

row,Variant,protein stability index
1,P6K,2.76
2,P6Y,2.82
3,P6A,3.96
4,P6N,2.1
5,P6V,2.38
6,P6I,2.61
7,P6S,3
8,P6H,1.92
9,P6R,2.13
10,P6L,1.19
11,P6G,1.95
12,P6D,2.39
13,P6F,2.6
14,N5L,2.63
15,N5Y,2.83
16,N5I,1.58
17,N5P,1.67
18,N5V,2.05
19,N5G,1.51
20,N5S,2.08
21,N5C,1.44
22,N5D,2.74
23,N5E,1.91
24,N5K,2.74

row,Variant,protein stability index
1,N5H,1.96
2,N5A,1.35
3,N5Q,2.55
4,N5M,2.15
5,N5T,2.37
6,N5R,1.94
7,V9T,2.36
8,V9K,2.38
9,V9Y,3.09
10,V9G,2.03
11,V9I,2.23
12,V9R,2.16
13,V9M,1.63
14,V9E,2.91
15,V9N,1.98
16,V9L,1.63
17,V9C,1.5
18,V9P,1.89
19,V9F,1.73
20,V9D,2.27
21,V9Q,2.03
22,V9H,1.8
23,V9S,1.8
24,V9A,2.66

row,Variant,protein stability index
1,V2Y,2.62
2,V2G,3.51
3,V2S,3.02
4,V2E,3.88
5,V2H,2.94
6,V2T,3.2
7,V2W,2.81
8,V2Q,2.81
9,V2K,3.26
10,V2D,3.79
11,V2C,2.94
12,V2L,2.43
13,V2M,3.36
14,V2N,3.68
15,V2R,3.84
16,V2F,2.74
17,V2I,2.3
18,V2P,2.96
19,V2A,2.75
20,E3L,1.27
21,E3N,1.85
22,E3I,1.85
23,E3G,1.66
24,E3H,1.83

row,Variant,protein stability index
1,E3Y,2.21
2,E3Q,1.58
3,E3P,2.41
4,E3K,1.94
5,E3F,2.57
6,E3T,1.15
7,E3S,3.64
8,E3W,1.55
9,E3V,2.25
10,E3R,1.38
11,E3C,1.52
12,E3D,1.95
13,E3A,1.49
14,F1N,4.08
15,F1C,2.87
16,F1D,4.5
17,F1V,3.89
18,F1E,4.26
19,F1W,2.49
20,F1L,3.95
21,F1Y,1.99
22,F1R,3.78
23,F1K,4.34
24,F1Q,3.71

row,Variant,protein stability index
1,F1A,3.59
2,F1P,3.85
3,F1M,3.36
4,F1H,4.01
5,F1G,3.26
6,F1S,4.11
7,F1T,3.87
8,F1I,3.4
9,I13P,1.91
10,I13K,2.25
11,I13C,1.77
12,I13L,1.67
13,I13V,2.03
14,I13E,2.4
15,I13F,2.08
16,I13N,2.42
17,I13G,1.71
18,I13S,2.59
19,I13A,2.23
20,I13Q,2.22
21,I13T,1.36
22,I13R,1.98
23,I13H,1.81
24,I13Y,1.73

row,Variant,protein stability index
1,I13M,2.6
2,I13D,2.17
3,F11V,1.82
4,F11G,2.13
5,F11K,2.05
6,F11R,2.02
7,F11E,3.01
8,F11T,2.02
9,F11N,2.22
10,F11S,1.77
11,F11C,2.01
12,F11A,1.85
13,F11D,2.82
14,F11Y,3.36
15,F11W,1.23
16,F11P,2
17,F11M,1.78
18,F11L,1.88
19,F11I,2.42
20,F11H,2
21,F11Q,2.09
